Data as given in patent US20230380451A1, “MEANS AND METHODS TO DETOXIFY MYCOTOXINS” (priority 2020, published 2023).

Columns and labels:
[1] = Storage stability at different pH values, residual DON transformation activity; assay type: biochemical; conditions: storage at 30° C.
Method: (§1) To determine the transformation of DON to epi-THS by Akr I-III, described herein, the following assay was performed. An assay buffer was prepared containing 40 ppm DON, 1 mM NADPH in Teorell Stenhagen (TS) buffer, pH 6.0 (Östling and Virtama, Acta Physiologica Scandinavica, 1946, 11:4, 289-293). Tubes containing the assay buffer were transferred in a heating block at 30° C. The reaction was started by addition of Akr I-III to a final concentration of 200 nM in a final reaction volume of 200 μL. Samples were taken before reaction start, and 2, 5, 10, 15 and 20 min after reaction start. DON transformation reactions in these samples were stopped by mixing with absolute methanol at a 1:2 ratio, followed by a 1:100 dilution with 40% methanol. The concentrations of DON and epi-THS in the samples were determined with liquid chromatography-mass spectrometry (LC-MS) on a Sciex 5500 triple quadrupole mass spectrometer coupled to Agilent 1290 series UHPLC system, using the following MS parameters: Acquisition duration: 4 min; Scan Type: MRM (MRM); Polarity: Negative; Ion Source: Turbo Spray.
The storage stability of Akr I-III at different pH values was tested by incubating 1 μM enzyme in TS buffer solutions with a pH of 3.0-10.0 for 4 h at 30° C. in standard 1.5 ml Eppendorf tubes. Every hour, a DON transformation assay was conducted as described in Example 3. The starting activity at time 0 min was set to 100% and the relative residual activities were determined throughout the incubation. For the DON transformation assays, 80 μl of the storage solution were added to an assay reaction with a final volume of 400 μl, which corresponds to a 1:5 dilution of the storage solution. Akr I retained more than 93% activity during 4 hours at 30° C. from pH 4.0-10.0. Akr II retained 30% to 93% activity during 4 hours at 30° C. from pH […] retained 27% to 85% activity during 4 hours at 30° C. from pH 4.0-9.0. Akr I-III retained more than 40% of their activity for 4 hours at 30° C. from pH 4.0 to pH 8.0.

[2] = Storage stability in storage buffer at different temperatures, residual DON transformation activity; assay type: biochemical; conditions: for Relative DON transformation activity: storage buffer
Method: as §1
The storage stability of Akr I-III was tested by incubation of 5 μM enzyme solutions in storage buffer (50 mM Tris pH 9.0, 0.5M NaCl, 50% Glycerol), for 60 min in a thermocycler (Mastercycler, Eppendorf) set to gradient mode from 30° C. to 50° C. Throughout the incubation, samples were removed and placed on ice until DON transformation assays were performed as described in Example 3 to determine enzyme activities. The starting activity at time 0 min was set to 100% and the relative residual activities were determined throughout the incubation. Akr I retained more than 33% activity during 60 min in pH 6 at temperatures from 29.9° C. to 46.0° C. Akr III retained 15% to 90% activity during 20 min in pH 6 at temperatures from 29.9° C. to 40.7° C.

B1: Akr III: artificial amino acid sequence, variant of a wild type aldo-keto reductase (protein)
chain: MRTTEIAQGLKVSNLCIGAGPLGGMPTAFGYDVSEERGIATVQAVFDSPINFMDTSSEYGGSEARIGKVIREGRMPKGFVISSKADAEGEGVGRRGDFSAKQVRASFELSLERLGLTHLDVYFLHDPEKFPFEQVMARGGAMEELLRLKDEGLVGLVGVAGGDVLEMARYVDTGSLDILLNYGRYTILDRSADSLITKVSDAGMAFLNAGPYASGLLAAPRGGSAWYQYAPPDATALQAVDQLHELCESFDVSLRSVALQFSMRDPRITSTVVGLSRPERVRALLDDEAAEIPAELWEQLPAPLNGDIVLPR
modifications: ArkIII
[1]; pH 3.0, 0 h (starting activity set to 100%)
  Relative DON-transformation activity: 100.0%
[1]; pH 3.0, 1 h
  Relative DON-transformation activity: 13.5%
[1]; pH 3.0, 2 h
  Relative DON-transformation activity: 19.3%
[1]; pH 3.0, 3 h
  Relative DON-transformation activity: 0.0%
[1]; pH 3.0, 4 h
  Relative DON-transformation activity: 0.0%
[1]; pH 4.0, 0 h (starting activity set to 100%)
  Relative DON-transformation activity: 100.0%
[1]; pH 4.0, 1 h
  Relative DON-transformation activity: 95.1%
[1]; pH 4.0, 2 h
  Relative DON-transformation activity: 84.4%
[1]; pH 4.0, 3 h
  Relative DON-transformation activity: 74.8%
[1]; pH 4.0, 4 h
  Relative DON-transformation activity: 57.7%
[1]; pH 5.0, 0 h (starting activity set to 100%)
  Relative DON-transformation activity: 100.0%
[1]; pH 5.0, 1 h
  Relative DON-transformation activity: 97.7%
[1]; pH 5.0, 2 h
  Relative DON-transformation activity: 96.3%
[1]; pH 5.0, 3 h
  Relative DON-transformation activity: 90.7%
[1]; pH 5.0, 4 h
  Relative DON-transformation activity: 85.2%
[1]; pH 6.0, 0 h (starting activity set to 100%)
  Relative DON-transformation activity: 100.0%
[1]; pH 6.0, 1 h
  Relative DON-transformation activity: 97.8%
[1]; pH 6.0, 2 h
  Relative DON-transformation activity: 94.9%
[1]; pH 6.0, 3 h
  Relative DON-transformation activity: 93.1%
[1]; pH 6.0, 4 h
  Relative DON-transformation activity: 78.9%
[1]; pH 7.0.0, 0 h (starting activity set to 100%)
  Relative DON-transformation activity: 100.0%
[1]; pH 7.0.0, 1 h
  Relative DON-transformation activity: 93.0%
[1]; pH 7.0.0, 2 h
  Relative DON-transformation activity: 91.3%
[1]; pH 7.0.0, 3 h
  Relative DON-transformation activity: 85.1%
[1]; pH 7.0.0, 4 h
  Relative DON-transformation activity: 74.0%
[1]; pH 8.0, 0 h (starting activity set to 100%)
  Relative DON-transformation activity: 100.0%
[1]; pH 8.0, 1 h
  Relative DON-transformation activity: 94.2%
[1]; pH 8.0, 2 h
  Relative DON-transformation activity: 77.9%
[1]; pH 8.0, 3 h
  Relative DON-transformation activity: 69.0%
[1]; pH 8.0, 4 h
  Relative DON-transformation activity: 57.6%
[1]; pH 9.0.0, 0 h (starting activity set to 100%)
  Relative DON-transformation activity: 100.0%
[1]; pH 9.0.0, 1 h
  Relative DON-transformation activity: 76.3%
[1]; pH 9.0.0, 2 h
  Relative DON-transformation activity: 61.3%
[1]; pH 9.0.0, 3 h
  Relative DON-transformation activity: 54.1%
[1]; pH 9.0.0, 4 h
  Relative DON-transformation activity: 27.4%
[1]; pH 10.0, 0 h (starting activity set to 100%)
  Relative DON-transformation activity: 100.0%
[1]; pH 10.0, 1 h
  Relative DON-transformation activity: 47.0%
[1]; pH 10.0, 2 h
  Relative DON-transformation activity: 27.1%
[1]; pH 10.0, 3 h
  Relative DON-transformation activity: 17.0%
[1]; pH 10.0, 4 h
  Relative DON-transformation activity: 15.4%
[2]; during 60 min in pH 6 at temperatures from 29.9° C. to 46.0° C.
  retained activity: more than 50%
[2]; 29.9° C., 0 min (starting activity set to 100%)
  Relative DON transformation activity: 100.00%
[2]; 29.9° C., 5 min
  Relative DON transformation activity: 89.1%
[2]; 29.9° C., 10 min
  Relative DON transformation activity: 91.6%
[2]; 29.9° C., 20 min
  Relative DON transformation activity: 90.3%
[2]; 29.9° C., 35 min
  Relative DON transformation activity: 93.1%
[2]; 29.9° C., 50 min
  Relative DON transformation activity: 74.0%
[2]; 29.9° C., 60 min
  Relative DON transformation activity: 72.2%
[2]; 35.3° C., 0 min (starting activity set to 100%)
  Relative DON transformation activity: 100.00%
[2]; 35.3° C., 5 min
  Relative DON transformation activity: 96.00%
[2]; 35.3° C., 10 min
  Relative DON transformation activity: 65.2%
[2]; 35.3° C., 20 min
  Relative DON transformation activity: 98.6%
[2]; 35.3° C., 35 min
  Relative DON transformation activity: 75.2%
[2]; 35.3° C., 50 min
  Relative DON transformation activity: 80.2%
[2]; 35.3° C., 60 min
  Relative DON transformation activity: 104.3%
[2]; 37.9° C., 0 min (starting activity set to 100%)
  Relative DON transformation activity: 100.00%
[2]; 37.9° C., 5 min
  Relative DON transformation activity: 94.01%
[2]; 37.9° C., 10 min
  Relative DON transformation activity: 74.5%
[2]; 37.9° C., 20 min
  Relative DON transformation activity: 43.9%
[2]; 37.9° C., 35 min
  Relative DON transformation activity: 75.2%
[2]; 37.9° C., 50 min
  Relative DON transformation activity: 80.9%
[2]; 37.9° C., 60 min
  Relative DON transformation activity: 78.6%
[2]; 40.7° C., 0 min (starting activity set to 100%)
  Relative DON transformation activity: 100.00%
[2]; 40.7° C., 5 min
  Relative DON transformation activity: 104.1%
[2]; 40.7° C., 10 min
  Relative DON transformation activity: 76.1%
[2]; 40.7° C., 20 min
  Relative DON transformation activity: 81.6%
[2]; 40.7° C., 35 min
  Relative DON transformation activity: 104.5%
[2]; 40.7° C., 50 min
  Relative DON transformation activity: 75.8%
[2]; 40.7° C., 60 min
  Relative DON transformation activity: 105.1%
[2]; 43.4° C., 0 min (starting activity set to 100%)
  Relative DON transformation activity: 100.00%
[2]; 43.4° C., 5 min
  Relative DON transformation activity: 83.4%
[2]; 43.4° C., 10 min
  Relative DON transformation activity: 68.1%
[2]; 43.4° C., 20 min
  Relative DON transformation activity: 66.7%
[2]; 43.4° C., 35 min
  Relative DON transformation activity: 89.3%
[2]; 43.4° C., 50 min
  Relative DON transformation activity: 81.3%
[2]; 43.4° C., 60 min
  Relative DON transformation activity: 91.8%
[2]; 46.0° C., 0 min (starting activity set to 100%)
  Relative DON transformation activity: 100.00%
[2]; 46.0° C., 5 min
  Relative DON transformation activity: 97.7%
[2]; 46.0° C., 10 min
  Relative DON transformation activity: 62.6%
[2]; 46.0° C., 20 min
  Relative DON transformation activity: 62.5%
[2]; 46.0° C., 35 min
  Relative DON transformation activity: 58.4%
[2]; 46.0° C., 50 min
  Relative DON transformation activity: 23.3%
[2]; 46.0° C., 60 min
  Relative DON transformation activity: 50.4%
[2]; 50.8° C., 0 min (starting activity set to 100%)
  Relative DON transformation activity: 100.00%
[2]; 50.8° C., 5 min
  Relative DON transformation activity: 77.4%
[2]; 50.8° C., 10 min
  Relative DON transformation activity: 72.7%
[2]; 50.8° C., 20 min
  Relative DON transformation activity: 19.5%
[2]; 50.8° C., 35 min
  Relative DON transformation activity: 16.6%
[2]; 50.8° C., 50 min
  Relative DON transformation activity: 10.9%
[2]; 50.8° C., 60 min
  Relative DON transformation activity: 16.0%
